T1: Human EPCAM (Epithelial Cell Adhesion Molecule) on EPCAM-positive Lovo cells (human, UniProt P16422 24-314)
T1 sequence (looked up): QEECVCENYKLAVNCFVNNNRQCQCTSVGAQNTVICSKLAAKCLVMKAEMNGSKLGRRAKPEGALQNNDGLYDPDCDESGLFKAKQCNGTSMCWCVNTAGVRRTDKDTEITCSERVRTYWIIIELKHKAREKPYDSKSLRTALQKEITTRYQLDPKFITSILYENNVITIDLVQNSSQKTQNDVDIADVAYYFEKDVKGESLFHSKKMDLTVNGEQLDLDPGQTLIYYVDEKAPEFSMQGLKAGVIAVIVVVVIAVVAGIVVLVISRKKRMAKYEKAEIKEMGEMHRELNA

B1: Humanized EPCAM ScFv-linker-CD3 ScFv-His tag (BITE) antibody PBM0065 (FIG. 1B structure) (bispecific antibody)
scFv: QVQLVQSGSELKKPGASVKVSCKASGYTFTNYGMNWVRQAPGQGLEWMGWINTYTGEPTYADDFKGRFVFSLDTSVSTAYLQISSLKAEDTAVYYCARWLRDFDYWGAGTTVTVSSGGGGSGGGGSGGGGSEIVLTQSPATLSLSPGERATLSCSASSSISYMHWYQQKPGQAPRLLIYDTSKLATGIPARFSGSGSGTDFTLTISSLEPEDFAVYYCHQRSSYPYTFGGGTKLEIKGGGGSGGGGSGGGGSEVQLLESGGGLVQPGGSLRLSCAASGFTFSTYAMNWVRQAPGKGLEWVSRIRSKYNNYATYYADSVKGRFTISRDDSKNTLYLQMNSLRAEDTAVYYCVRHGNFGNSYVSWFAYWGQGTLVTVSSGGGGSGGGGSGGGGSQAVVTQEPSLTVSPGGTVTLTCGSSTGAVTTSNYANWVQEKPGQAFRGLIGGTNKRAPGTPARFSGSLLGGKAALTLSGAQPEDEAEYYCALWYSNLWVFGGGTKLTVLHHHHHH
B2: Humanized EPCAM-CD3 bivalent CrossFAB knob-in-hole bispecific antibody PBM005 (FIG. 1A structure) (bispecific antibody)
light: EIVLTQSPATLSLSPGERATLSCSASSSISYMHWYQQKPGQAPRLLIYDTSKLATGIPARFSGSGSGTDFTLTISSLEPEDFAVYYCHQRSSYPYTFGGGTKLEIKRTVAAPSVFIFPPSDEQLKSGTASVVCLLNNFYPREAKVQWKVDNALQSGNSQESVTEQDSKDSTYSLSSTLTLSKADYEKHKVYACEVTHQGLSSPVTKSFNRGEC
chain: QAVVTQEPSLTVSPGGTVTLTCGSSTGAVTTSNYANWVQEKPGQAFRGLIGGTNKRAPGTPARFSGSLLGGKAALTLSGAQPEDEAEYYCALWYSNLWVFGGGTKLTVLSSASTKGPSVFPLAPSSKSTSGGTAALGCLVKDYFPEPVTVSWNSGALTSGVHTFPAVLQSSGLYSLSSVVTVPSSSLGTQTYICNVNHKPSNTKVDKKVEPKSC
heavy 1: not shown
heavy 2: QVQLVQSGSELKKPGASVKVSCKASGYTFTNYGMNWVRQAPGQGLEWMGWINTYTGEPTYADDFKGRFVFSLDTSVSTAYLQISSLKAEDTAVYYCARWLRDFDYWGAGTTVTVSSTKGPSVFPLAPSSKSTSGGTAALGCLVKDYFPEPVTVSWNSGALTSGVHTFPAVLQSSGLYSLSSVVTVPSSSLGTQTYICNVNHKPSNTKVDKKVEPKSCDKTHTCPPCPAPEAAGGPSVFLFPPKPKDTLMISRTPEVTCVVVDVSHEDPEVKFNWYVDGVEVHNAKTKPREEQYNSTYRVVSVLTVLHQDWLNGKEYKCKVSNKALGAPIEKTISKAKGQPREPQVCTLPPSRDELTKNQVSLSCAVKGFYPSDIAVEWESNGQPENNYKTTPPVLDSDGSFFLVSKLTVDKSRWQQGNVFSCSVMHEALHNHYTQKSLSLSPGK
notes: Four constructs co-transfected in 293S cells at 2:1:1:1; Supernatant or protein A purified antibody was used; also called EPCAM-CROSS-FAB-CD3 Knob in hole (KIH) CrossFAB format antibody; EpCAM-CD3 CrossMab knob-in-hole

Legend:
[1] = target: T1, Human EPCAM (Epithelial Cell Adhesion …); assay: cell-based or functional assay
[2] = target: T1, Human EPCAM (Epithelial Cell Adhesion …); assay: FACS on EPCAM-positive cells
[3] = target: T2, Human CD3 epsilon chain on CD3-positive T cells (human, UniProt P07766 23-207); assay: FACS on T cells
T2 construct: whole, on cells; also called CD3 antigen
T2 sequence (P07766 23-207): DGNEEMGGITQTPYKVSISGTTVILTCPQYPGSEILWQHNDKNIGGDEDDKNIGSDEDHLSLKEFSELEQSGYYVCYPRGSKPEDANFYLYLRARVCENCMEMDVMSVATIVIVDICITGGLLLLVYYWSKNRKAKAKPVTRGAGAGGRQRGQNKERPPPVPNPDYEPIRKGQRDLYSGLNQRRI

Row | Binder | EC50 based on IFN-gamma secretion [1] | binding result [2] | binding result [3]
1 | B1 | 5.28 ng/mL |  | 
2 | B2 |  | binds | binds

Source: patent publication US20250388695A1 (PROMAB BIOTECHNOLOGIES, published 2025)
